Key:
[1] = tested on: mouse primary hindbrain neurons (MPHN); experiment: Calcium flux in primary hindbrain neurons; format: cell-based; conditions: MPHN treated with undercarboxylated or carboxylated osteocalcin
Experimental: For calcium imaging, primary hindbrain neurons seeded on 12 mm coverslips were allowed the appropriate time to form structural networks. These cultures were washed with HBSS and loaded with 2.5 μM FURA-2, AM calcium indicator for 45 minutes at room temperature, according to the manufacturer's protocol. Cells were then washed to remove excess indicator and incubated for 30 minutes to allow internalized esters to become de-esterified. 30 ng/ml of osteocalcin was prepared with the control buffer of 1×HBBS supplemented with 10 mM HEPES buffer and 2 mM CaCl2. Using a Zeiss microscope with a perfusion system, coverslips were first perfused with control and osteocalcin. After each stimulation, cells were depolarized with 50 mM KCl to determine the percentage of live cells being imaged. All treatments were recorded using two-photon laser scanning microscopy by Prairie Technologies and analyzed by Z axis profile plotting using ImageJ.
To determine if osteocalcin acts directly on neurons to modulate neurotransmitter synthesis, several types of assays were performed. First, brainstem and midbrain explants from WT and Gprc6a^−/− mice were generated. […] Third, to further confirm that osteocalcin signals in neurons of the hindbrain, calcium flux in MPHN treated with undercarboxylated or carboxylated osteocalcin (FIG. 3F) was measured. […]

[2] = Acute stereotactic injection into the hippocampus, pCREB and PKA immunofluorescence; format: in vivo, mouse; conditions: 10 ng into hippocampus, 16 h post injection
Experimental: (§1) FIG. 10. Osteocalcin administration results in CREB phosphorylation. (A) p-CREB immunofluorescence (IF) in the dentate gyms (DG) of WT and Ocn−/− hippocampal region. (B) p-CREB IF in WT brain sections following a dual stereotactic injection of vehicle (PBS) (on the left) or Ocn (10 ng) (on the right) in the hippocampus. The arrows point toward the DG. (C) PKA IF in WT brain sections following a dual stereotactic injection of vehicle (PBS) (on the right) or Ocn (10 ng) (on the left) in the hippocampus.
(§2) The resulting effects on animal behavior of direct recombinant uncarboxylated osteocalcin delivery raise the question of the molecular mechanism of action of osteocalcin in the brain. Given that osteocalcin acts through a G-protein coupled receptor pathway in other tissues, e.g., pancreas and testis, the phosphorylated CREB levels in the hippocampi of Ocn−/− and WT animals was checked. […] The hippocampus is essential for optimal spatial learning and memory in rodents. It was then asked whether the acute stereotactic injection of 10 ng of recombinant uncarboxylated osteocalcin directly into the hippocampus of WT animals would affect pCREB levels. At 16 h post injection, pCREB staining was increased in the hemisphere injected with osteocalcin versus the one injected with PBS in the same animal (FIG. 10B).

[3] = tested on: CREB phosphorylation in the hippocampus; experiment: as above; format: in vivo, mouse; conditions: 10 ng into hippocampus of WT animals, 16 h post injection
Experimental: as §1, §2

B1: uncarboxylated osteocalcin: Recombinant osteocalcin bacterially produced, cleaved from the GST subunit; completely undercarboxylated at all three sites (protein, listed as Homo sapiens)
chain: MRALTLLALLALAALCIAGQAGAKPSGAESSKGAAFVSKQEGSEVVKRPRRYLYQWLGAPVPYPDPLEPRREVCELNPDCDELADHIGFQEAYRRFYGPV
modifications: uncarboxylated
notes: Recombinant osteocalcin bacterially produced, cleaved from the GST subunit; completely undercarboxylated at all three sites
calcium fluxes in primary hindbrain neurons [1]: induced changes in calcium fluxes
PKA staining in the injected hemisphere [2]: widespread and dramatic increase
pCREB staining in injected hemisphere versus PBS hemisphere [3]: increased

— patent US10052364B2, “Osteocalcin as a treatment for cognitive disorders” (THE TRUSTEES OF COLUMBIA UNIVERSITY IN THE CITY OF NEW YORK, priority 2013, dated 2018)
